Results taken from paper PMC4016012, “Successful Conversion of the Bacillus subtilis BirA Group II Biotin Protein Ligase into a Group I Ligase” (PLoS ONE, 2014).

T1: BirA (biotin protein ligase, Group II) (Bacillus subtilis 168) (UniProt P0CI75)
T1 sequence: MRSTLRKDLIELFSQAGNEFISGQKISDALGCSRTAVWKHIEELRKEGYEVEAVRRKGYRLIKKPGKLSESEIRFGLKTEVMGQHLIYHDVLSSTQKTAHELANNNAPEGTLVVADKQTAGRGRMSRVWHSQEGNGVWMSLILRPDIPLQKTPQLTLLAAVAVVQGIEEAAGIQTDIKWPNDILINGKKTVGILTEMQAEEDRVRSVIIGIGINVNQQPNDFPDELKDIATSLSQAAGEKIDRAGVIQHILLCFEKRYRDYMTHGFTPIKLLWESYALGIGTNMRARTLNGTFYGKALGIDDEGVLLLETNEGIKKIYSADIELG

B1: B. subtilis N-terminally hexahistidine-tagged BirA (enzyme, Bacillus subtilis, UniProt P0CI75 1-325, looked up)
chain: T1 sequence
notes: 325 residues by the names of the constructs (64-325 etc.); no step that removes the tag is described; The vector is pET19b, whose own tag may be longer than six histidines and is followed by a linker (surmise); also called wild type BirA; B. subtilis BirA; source: E. coli BL21 (λ DE3) with pSKH001, purified (Ni NTA)
B2: B. subtilis N-terminally hexahistidine-tagged Δ2-65 BirA (domain or fragment, Bacillus subtilis, UniProt P0CI75 66-325, looked up)
chain: GKLSESEIRFGLKTEVMGQHLIYHDVLSSTQKTAHELANNNAPEGTLVVADKQTAGRGRMSRVWHSQEGNGVWMSLILRPDIPLQKTPQLTLLAAVAVVQGIEEAAGIQTDIKWPNDILINGKKTVGILTEMQAEEDRVRSVIIGIGINVNQQPNDFPDELKDIATSLSQAAGEKIDRAGVIQHILLCFEKRYRDYMTHGFTPIKLLWESYALGIGTNMRARTLNGTFYGKALGIDDEGVLLLETNEGIKKIYSADIELG
notes: no step that removes the tag is described; Primer SKH047 (BirA 66-325 NdeI F) reads ATGGGAAAACTCAGTGAAAGC, i.e. M-GKLSES; also called BirA 66-325; Δ2-66 BirA (so named in the methods); source: E. coli BL21 (λ DE3) with pSKH020, purified (Ni NTA)

Target: the molecule itself
Assay: cross-linking; purified BirA 30 µM in 50 mM HEPES pH 7.5, 500 mM NaCl, 0.1 mM TCEP, 5% glycerol; with biotin (0.1 mM) and ATP (0.1 mM), room temperature 30 min; EGS 0.125-0.5 mM, room temperature 30 min; SDS-PAGE on 4-20% gels
Conditions: not given

| Molecule | stoichiometry N |
| --- | --- |
| B1 | 2 |
| B2 | 2 |

Target: T1, BirA (biotin protein ligase, Group II) (Bacillus subtilis 168)
Assay: EMSA
Conditions: 50 mM Tris-HCl pH 8.0, 1 mM EDTA, 50 mM NaCl, 10% glycerol, 40 nM DNA, 15.6-500 nM BirA, 1 mM ATP, 1 mM MgCl2, 1 uM biotin; room temperature 30 min; 6% gel in …

| Molecule | binding |
| --- | --- |
| GGGGCTTCTCCAAAACGTGTTTTTTGTTGTTAATTCGGTGTAGACTTGTAAACCTAAATCTTTTCAATTTGGTTTACAAGTCGATTATGACAACGGACGATCTTGCCTTTGACCAACGCCATATC (double strand) [E. coli bioO] | binds more weakly |
| CCAAAAAGTAATCAAATATGGTTATACAATAAATGCAGGTAATTATTATGTCAACTGATTTTTAATTTAAGTTTACATAATGAACGCAAAAAAACCGGCCGTATGGCAGACCGGTTTTTGATGGT (double strand) [yhfU operator] | binds |
| CCCTTAGGTTGACATACACAATCATAGAGTAATAAAGAACAAAAAGATTGTCAACATGATTTTAAATTAGGTTAACAAAAAGGAGGCCCATATGTATTTCGGAAAAACAAGACAGTCCGATCAAT (double strand) [yuiG operator] | binds |
| ATTCAAAGGTTAACAATTAGAATATATTATTCTCTCCTGTTTCTGTCAATAGAAGAAAGGATCGATTTATGGCAGTTGGTTAAAAGGAAACAAAAAGACCGTTTTCACACAAAACGGTCTTTTTC (double strand) [B. subtilis bioO half site] | no binding |
| AACGATCGGGATTTCCATTTTCATCGATTCCAAAATGGCTACCTCCTGGCCCTTTTCGATTTGGTCGCCGGCTTTGACGTGGACTTTCCACAGGTTTCCTGCCATTTGTATGCTAACCGTCATGC (double strand) [non-operator DNA (yngHB/blap internal fragment)] | no binding |
| CCTTTCACTGATAACTGAAGAACGTGTAGCGCTTCTCACCTAAATTGTTAACCAATTATATTCAAAGGTTAACAATTAGAATATATTATTCTCTCCTGTTTCTGTCAATAGAAGAAAGGATC (double strand) [B. subtilis bioO (bioWAFDBI operator)] | binds |
